Results: FireProtDB (doi:10.1110/ps.051838206)
Where “and” joins values, the source holds several entries; their conditions need not be identical. Equal entries are not always repeated.

B1: Azurin, P00282 (parent)
chain: MLRKLAAVSLLSLLSAPLLAAECSVDIQGNDQMQFNTNAITVDKSCKQFTVNLSHPGNLPKNVMGHNWVLSTAADMQGVVTDGMASGLDKDYLKPDDSRVIAHTKLIGSGEKDSVTFDVSKLKEGEQYMFFCTFPGHSALMKGTLTLK

Variants of: B1
Details: Pseudomonas aeruginosa (strain ATCC 15692 / DSM 22644 / CIP 104116 / JCM 14847 / LMG 12228 / 1C / PRS 101 / PAO1), pH 7, 25 °C, GdnHCl, Tris-HCl 100 mM, reversible: Yes, structure 5AZU, whole UniProt chain shown

With I40T the “ddG of mutation (higher = less stable)” value (CD) was 2.39 kcal/mol and 1.91 kcal/mol and the “ddG of mutation (higher = less stable)” value (Fluorescence) was 2.39 kcal/mol and 1.91 kcal/mol.

With I40V the unfolding free energy (CD) was 5.59 kcal/mol and 12.9 kcal/mol and the unfolding free energy (Fluorescence) was 5.59 kcal/mol and 12.9 kcal/mol.

With I40A the “ddG of mutation (higher = less stable)” value (Fluorescence) was 1.55 kcal/mol and the unfolding free energy (Fluorescence) was 4.42 kcal/mol.

For L70T, the “ddG of mutation (higher = less stable)” value (CD) was 2.34 kcal/mol and 2.15 kcal/mol, the unfolding free energy (CD) was 3.63 kcal/mol and 10.8 kcal/mol and the “ddG of mutation (higher = less stable)” value (Fluorescence) was 2.15 kcal/mol. It also gave an unfolding free energy (Fluorescence) of 10.8 kcal/mol.

In the case of L70V, the “ddG of mutation (higher = less stable)” value (CD) is reported as 0.36 kcal/mol and 0.24 kcal/mol, the unfolding free energy (CD) is reported as 5.62 kcal/mol and 12.7 kcal/mol and the “ddG of mutation (higher = less stable)” value (Fluorescence) is reported as 0.36 kcal/mol and 0.24 kcal/mol. The unfolding free energy (Fluorescence) was 5.62 kcal/mol and 12.7 kcal/mol.

In the case of I101A, the “ddG of mutation (higher = less stable)” value (CD) is reported as 2.39 kcal/mol, the unfolding free energy (CD) is reported as 3.59 kcal/mol and the “ddG of mutation (higher = less stable)” value (Fluorescence) is reported as 2.39 kcal/mol. The unfolding free energy (Fluorescence) was 3.59 kcal/mol.

For I101T, the “ddG of mutation (higher = less stable)” value (CD) was 2.51 kcal/mol and 3.35 kcal/mol, the unfolding free energy (CD) was 3.47 kcal/mol and 9.56 kcal/mol and the “ddG of mutation (higher = less stable)” value (Fluorescence) was 2.51 kcal/mol and 3.35 kcal/mol. The unfolding free energy (Fluorescence) was 3.47 kcal/mol and 9.56 kcal/mol.

With I101V the unfolding free energy (CD) was 5.9 kcal/mol and 12.7 kcal/mol and the unfolding free energy (Fluorescence) was 5.9 kcal/mol and 12.7 kcal/mol.

For V115T, the unfolding free energy (CD) was 6.93 kcal/mol and 12.8 kcal/mol and the unfolding free energy (Fluorescence) was 6.93 kcal/mol and 12.8 kcal/mol.

In the case of V42A, the “ddG of mutation (higher = less stable)” value (CD) is reported as 1.43 kcal/mol and the unfolding free energy (CD) is reported as 4.54 kcal/mol.

For V42T, the unfolding free energy (CD) was 5.02 kcal/mol and 8.6 kcal/mol and the unfolding free energy (Fluorescence) was 5.02 kcal/mol and 8.6 kcal/mol.

With V51T the unfolding free energy (CD) was 4.9 kcal/mol and 8.84 kcal/mol and the unfolding free energy (Fluorescence) was 4.9 kcal/mol and 8.84 kcal/mol.
